Laboratory results reported in publication PMC10567733, “C9orf72-catalyzed GTP loading of Rab39A enables HOPS-mediated membrane tethering and fusion in mammalian autophagy” (Nature Communications, 2023).
Blank lines part the entries; values can stand above or below the binder they belong to.

Legend:
VPS41-Flag = molecular target: T1, VPS41-Flag (human, UniProt P49754 1-854); test: pull-down; Glutathione Sepharose beads bound with GST, GST-Rab39A or GST-Rab39B, incubated with the purified protein for one hour, washed, boiled, immunoblot; details: both partners purified
T1 construct: VPS41, human, cloned from human cDNA (293T cells); also called V41; not shown: Flag, C-terminal, kept
T1 sequence (looked up): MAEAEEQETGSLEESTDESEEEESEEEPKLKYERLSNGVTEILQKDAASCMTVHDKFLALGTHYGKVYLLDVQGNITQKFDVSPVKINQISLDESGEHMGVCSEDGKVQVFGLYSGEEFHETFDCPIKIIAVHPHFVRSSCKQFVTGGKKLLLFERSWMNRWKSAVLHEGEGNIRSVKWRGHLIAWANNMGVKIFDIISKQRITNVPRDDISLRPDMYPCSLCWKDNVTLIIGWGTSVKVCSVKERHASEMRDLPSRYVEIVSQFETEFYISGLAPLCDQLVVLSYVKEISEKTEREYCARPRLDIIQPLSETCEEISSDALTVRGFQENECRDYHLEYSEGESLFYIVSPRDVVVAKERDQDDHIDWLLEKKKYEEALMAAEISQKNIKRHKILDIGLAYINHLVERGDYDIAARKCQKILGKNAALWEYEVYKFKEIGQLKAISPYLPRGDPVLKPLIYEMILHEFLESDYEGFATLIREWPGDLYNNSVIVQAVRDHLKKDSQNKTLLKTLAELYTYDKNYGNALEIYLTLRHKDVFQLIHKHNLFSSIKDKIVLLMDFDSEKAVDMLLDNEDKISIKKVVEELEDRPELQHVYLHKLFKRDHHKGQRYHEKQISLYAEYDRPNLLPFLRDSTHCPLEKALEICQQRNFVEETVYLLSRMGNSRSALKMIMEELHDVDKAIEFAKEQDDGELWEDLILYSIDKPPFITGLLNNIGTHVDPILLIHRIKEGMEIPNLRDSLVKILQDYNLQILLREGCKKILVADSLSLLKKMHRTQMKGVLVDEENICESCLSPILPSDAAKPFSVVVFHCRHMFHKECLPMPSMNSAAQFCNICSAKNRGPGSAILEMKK

Myc-C9orf72 = molecular target: T2, Myc-C9orf72 (human, UniProt Q96LT7 1-481); test: as above; details: both partners purified
T2 construct: C9orf72, human, cloned from human cDNA; source: E. coli BL21 (DE3), purified (Glutathione Sepharose, eluted by TEV cleavage or GSH); not shown: Myc, N-terminal, kept
T2 sequence (looked up): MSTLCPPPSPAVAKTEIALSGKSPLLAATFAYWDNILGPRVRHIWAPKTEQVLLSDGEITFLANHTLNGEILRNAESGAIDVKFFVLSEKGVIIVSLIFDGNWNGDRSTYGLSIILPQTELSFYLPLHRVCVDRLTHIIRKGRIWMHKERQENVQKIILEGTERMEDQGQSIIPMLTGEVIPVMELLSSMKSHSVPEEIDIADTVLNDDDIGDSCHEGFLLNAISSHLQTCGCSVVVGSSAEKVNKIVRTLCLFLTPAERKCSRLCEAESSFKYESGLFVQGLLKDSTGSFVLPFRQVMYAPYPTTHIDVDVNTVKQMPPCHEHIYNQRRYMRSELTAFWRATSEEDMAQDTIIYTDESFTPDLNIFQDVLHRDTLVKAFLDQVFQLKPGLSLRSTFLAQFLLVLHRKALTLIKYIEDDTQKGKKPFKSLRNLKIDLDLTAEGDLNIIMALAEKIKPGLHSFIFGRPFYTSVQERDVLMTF

- binding result (VPS41-Flag): binds
- binding result (Myc-C9orf72): binds
B1: GST-Rab39A (natural protein, human, UniProt Q14964 1-217, looked up)
chain: METIWIYQFRLIVIGDSTVGKSCLLHRFTQGRFPGLRSPACDPTVGVDFFSRLLEIEPGKRIKLQLWDTAGQERFRSITRSYYRNSVGGFLVFDITNRRSFEHVKDWLEEAKMYVQPFRIVFLLVGHKCDLASQRQVTREEAEKLSADCGMKYIETSAKDATNVEESFTILTRDIYELIKKGEICIQDGWEGVKSGFVPNTVHSSEEAVKPRKECFC
notes: Rab39A, human, cloned from human cDNA; unprenylated; also called GST-R39A; purified Rab39A; source: E. coli BL21 (DE3), purified (Glutathione Sepharose); not shown: GST, N-terminal, kept

- binding result (VPS41-Flag): binds
- binding result (Myc-C9orf72): binds
B2: GST-Rab39B (natural protein, human, UniProt Q96DA2 1-213, looked up)
chain: MEAIWLYQFRLIVIGDSTVGKSCLIRRFTEGRFAQVSDPTVGVDFFSRLVEIEPGKRIKLQIWDTAGQERFRSITRAYYRNSVGGLLLFDITNRRSFQNVHEWLEETKVHVQPYQIVFVLVGHKCDLDTQRQVTRHEAEKLAAAYGMKYIETSARDAINVEKAFTDLTRDIYELVKRGEITIQEGWEGVKSGFVPNVVHSSEEVVKSERRCLC
notes: Rab39B, human, cloned from human cDNA; unprenylated; also called GST-R39B; purified Rab39B; source: E. coli BL21 (DE3), purified (Glutathione Sepharose); not shown: GST, N-terminal, kept
